The record followed here is article PMC2956967, “Cytochrome P450 102A2 Catalyzes Efficient Oxidation of Sodium Dodecyl Sulphate: A Molecular Tool for Remediation” (Enzyme Research, 2010).

One may read the Ki as the equilibrium dissociation constant of an inhibitor or competing ligand from its target. A low value points to a stronger hold on the target. For orientation: Km means the substrate concentration at which the rate is half of its maximum. Broadly, the kcat is the number of substrate molecules converted per active site and unit of time at saturation. In general, kcat/Km refers to the second-order rate constant that governs catalysis at low substrate concentration. The Vmax is the rate approached at saturating substrate.

In one data set the target is T1, CYP102A2 (Bacillus subtilis, UniProt O08394).
T1 construct: gene cypD; full-length heme-diflavin reductase fusion, about 119 kDa per active site; PCR from genomic DNA, pCR T7/CT-TOPO, E. coli BL21(DE3); untagged enzyme and C-terminal 6His version both made, said kinetically alike
T1 sequence (O08394 1-1061): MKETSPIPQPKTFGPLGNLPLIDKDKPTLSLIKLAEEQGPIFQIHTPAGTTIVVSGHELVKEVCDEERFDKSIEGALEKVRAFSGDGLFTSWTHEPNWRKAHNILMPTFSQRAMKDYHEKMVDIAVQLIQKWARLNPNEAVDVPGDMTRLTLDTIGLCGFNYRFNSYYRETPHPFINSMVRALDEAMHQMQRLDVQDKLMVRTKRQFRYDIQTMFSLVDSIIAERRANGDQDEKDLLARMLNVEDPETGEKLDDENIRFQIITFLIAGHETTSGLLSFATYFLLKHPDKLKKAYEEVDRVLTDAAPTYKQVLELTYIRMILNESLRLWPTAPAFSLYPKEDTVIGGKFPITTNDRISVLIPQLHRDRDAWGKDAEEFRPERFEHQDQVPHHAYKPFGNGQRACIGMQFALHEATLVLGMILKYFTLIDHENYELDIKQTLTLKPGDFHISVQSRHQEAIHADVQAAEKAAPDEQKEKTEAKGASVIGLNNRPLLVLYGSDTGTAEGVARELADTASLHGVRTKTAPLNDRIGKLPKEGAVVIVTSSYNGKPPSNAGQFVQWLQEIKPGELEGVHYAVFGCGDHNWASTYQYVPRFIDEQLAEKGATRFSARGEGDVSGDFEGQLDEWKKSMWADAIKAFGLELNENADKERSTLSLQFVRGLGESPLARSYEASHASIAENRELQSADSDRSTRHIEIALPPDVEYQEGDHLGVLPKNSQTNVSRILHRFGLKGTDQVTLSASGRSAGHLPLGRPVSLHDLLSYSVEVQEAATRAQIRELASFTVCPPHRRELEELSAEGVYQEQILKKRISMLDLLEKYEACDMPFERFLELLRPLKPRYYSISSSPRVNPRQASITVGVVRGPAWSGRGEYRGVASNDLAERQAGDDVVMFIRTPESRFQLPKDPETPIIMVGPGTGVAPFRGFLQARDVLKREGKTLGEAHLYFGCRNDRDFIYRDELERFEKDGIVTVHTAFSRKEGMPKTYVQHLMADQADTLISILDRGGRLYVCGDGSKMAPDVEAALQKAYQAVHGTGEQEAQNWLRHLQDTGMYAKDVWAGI
Nature of the data set: product inhibition, NADPH oxidation at […] nm. The class given is biochemical.

Substrate in data set [1]: NC(=O)C1=CN([C@@H]2O[C@H](COP(=O)(O)OP(=O)(O)OC[C@H]3O[C@@H](n4cnc5c(N)ncnc54)[C@H](OP(=O)(O)O)[C@@H]3O)[C@@H](O)[C@H]2O)C=CC1
Nature of the data set: purified protein. The class given is biochemical, Bacillus subtilis. The settings on record: 1.735 mM SDS co-substrate, 0.1 M potassium phosphate pH 7.2, 37 °C, NADPH 6.6-100 μM.

Substrate in data set [2]: CCCCCCCCCCCC(=O)O
Nature of the data set: purified protein. It is filed as biochemical, Bacillus subtilis. The settings on record: NADPH co-substrate, 0.1 M potassium phosphate pH 7.2, 37 °C, sigmoidal, nH 8.7.

Substrate in data set [3]: CCCCCCCCCCCCOS(=O)(=O)O
Nature of the data set: purified protein. The class given is biochemical, Bacillus subtilis. The conditions noted are these: 0.1 mM NADPH, 0.1 M potassium phosphate pH 7.2, 37 °C, SDS 0.34-1.73 mM, sigmoidal, nH 5.7.

Molecule `NC(=O)c1ccc[n+]([C@@H]2O[C@H](COP(=O)(O)OP(=O)(O)OC[C@H]3O[C@@H](n4cnc5c(N)ncnc54)[C@H](OP(=O)(O)O)[C@@H]3O)[C@@H](O)[C@H]2O)c1` [NADP^+] registered a Ki on CYP102A2 of 100 µM.

B1: CYP102A2 (Bacillus subtilis subsp. subtilis str. 168) (protein)
chain: MKETSPIPQPKTFGPLGNLPLIDKDKPTLSLIKLAEEQGPIFQIHTPAGTTIVVSGHELVKEVCDEERFDKSIEGALEKVRAFSGDGLFTSWTHEPNWRKAHNILMPTFSQRAMKDYHEKMVDIAVQLIQKWARLNPNEAVDVPGDMTRLTLDTIGLCGFNYRFNSYYRETPHPFINSMVRALDEAMHQMQRLDVQDKLMVRTKRQFRYDIQTMFSLVDSIIAERRANGDQDEKDLLARMLNVEDPETGEKLDDENIRFQIITFLIAGHETTSGLLSFATYFLLKHPDKLKKAYEEVDRVLTDAAPTYKQVLELTYIRMILNESLRLWPTAPAFSLYPKEDTVIGGKFPITTNDRISVLIPQLHRDRDAWGKDAEEFRPERFEHQDQVPHHAYKPFGNGQRACIGMQFALHEATLVLGMILKYFTLIDHENYELDIKQTLTLKPGDFHISVQSRHQEAIHADVQAAEKAAPDEQKEKTEAKGASVIGLNNRPLLVLYGSDTGTAEGVARELADTASLHGVRTKTAPLNDRIGKLPKEGAVVIVTSSYNGKPPSNAGQFVQWLQEIKPGELEGVHYAVFGCGDHNWASTYQYVPRFIDEQLAEKGATRFSARGEGDVSGDFEGQLDEWKKSMWADAIKAFGLELNENADKERSTLSLQFVRGLGESPLARSYEASHASIAENRELQSADSDRSTRHIEIALPPDVEYQEGDHLGVLPKNSQTNVSRILHRFGLKGTDQVTLSASGRSAGHLPLGRPVSLHDLLSYSVEVQEAATRAQIRELASFTVCPPHRRELEELSAEGVYQEQILKKRISMLDLLEKYEACDMPFERFLELLRPLKPRYYSISSSPRVNPRQASITVGVVRGPAWSGRGEYRGVASNDLAERQAGDDVVMFIRTPESRFQLPKDPETPIIMVGPGTGVAPFRGFLQARDVLKREGKTLGEAHLYFGCRNDRDFIYRDELERFEKDGIVTVHTAFSRKEGMPKTYVQHLMADQADTLISILDRGGRLYVCGDGSKMAPDVEAALQKAYQAVHGTGEQEAQNWLRHLQDTGMYAKDVWAGI
notes: full-length heme-diflavin reductase fusion, about 119 kDa per active site; PCR from genomic DNA, pCR T7/CT-TOPO, E. coli BL21(DE3); untagged enzyme and C-terminal 6His version both made, said kinetically alike
For B1, in “purified protein [1]”, the Km is 8.30 ± 0.62 µM, the kcat is 2.05 ± 0.05 s⁻¹ and the catalytic efficiency (kcat/Km) came out at 250000 M⁻¹ s⁻¹. In the data set “purified protein [2]”, the K0.5 is recorded as 0.47 ± 0.005 mM and the Vmax worked out at 0.088 µmol/min. Moreover, in “purified protein [3]”, the K0.5 stood at 1.22 ± 0.04 mM and the Vmax was 0.18 µmol/min.
